The supplement of paper PMC9732359
± gives the uncertainty stated by the source.

Assay: protein stability index of a GFP-peptide fusion (yeast GPS) (PSI 1-4); higher = more stable; sorted into four equal gates, so the index is relative within each strain
Outline: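 The protein stability index combines read frequencies across sorting gates, each weighted by its gate number and then summed. To obtain those frequencies, a pooled yeast library of GFP fusions to tiled 17-residue yeast protein peptides, on a plasmid also expressing Cherry, was grown to mid-log phase in leucine-free medium. The cells were sorted into four equal gates by GFP/Cherry ratio before plasmid amplification by PCR and Illumina sequencing.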

Sequence	protein stability index (doa10∆)	protein stability index (pdr5∆)	protein stability index (ubr1∆)	protein stability index (san1∆)
GSGNNNEIESRQLTSLG [SNU114]	3.4 ± 0.16	3.32 ± 0.16	3.19 ± 0.19	–
GSKSASKQTPQPKAPRA [ISW2]	3.08 ± 0.076	3.17 ± 0.12	3.23 ± 0.08	2.76 ± 0.1
GSLARAGKVKSQTPKVE [RPS30A]	2.71 ± 0.06	2.7 ± 0.069	2.57 ± 0.05	2.69 ± 0.058
GSNYNPYFPGGSIAMAR [CYT1]	2.08 ± 0.082	2.4 ± 0.13	2.35 ± 0.048	2.59 ± 0.093
GSPKSATSKTSEMLAKY [CDC53]	2.67 ± 0.075	2.48 ± 0.072	3 ± 0.045	1.83 ± 0.1
GSPQMLANEERLSNEMH [RGR1]	2.9 ± 0.074	2.95 ± 0.071	2.93 ± 0.054	3.39 ± 0.051
GSTTIEKKNDENSTSNS [YLR335W/NUP2]	3.1 ± 0.085	3.18 ± 0.097	3.17 ± 0.044	3.18 ± 0.06
GSVMSASVEIVFHDPDH [SMC3]	2.12 ± 0.091	2.53 ± 0.071	2.55 ± 0.061	2.4 ± 0.084
GSYNAFEPASRLQGIKL [COR1]	2.95 ± 0.053	3.16 ± 0.068	2.99 ± 0.073	3.15 ± 0.063
GTGKSQSGSNSGNNSKK [ROX3]	3.37 ± 0.3	–	–	2.77 ± 0.2
GTHNMYKEIRDVSRVAA [RPL20A]	1.96 ± 0.089	2.22 ± 0.14	2.29 ± 0.083	2.03 ± 0.1
GTKSNEKKDSGSSKPAF [YJL041W/NSP1]	3.21 ± 0.063	3.45 ± 0.072	3.25 ± 0.069	3.42 ± 0.046
GTNPLSSDGAYTEQFQH [SSN2]	3.23 ± 0.093	3.09 ± 0.075	3.06 ± 0.062	2.96 ± 0.055
GTPKTDSFIFDGTAKEV [MED4]	2.32 ± 0.041	2.43 ± 0.046	2.65 ± 0.045	2.58 ± 0.071
GTPPMLHQRTHKQVYPL [DSN1]	2.52 ± 0.1	2.87 ± 0.069	2.93 ± 0.056	2.77 ± 0.071
GVEEVEGEYELTEAVED [RPL5]	3.36 ± 0.11	3.45 ± 0.13	3.24 ± 0.2	3.24 ± 0.14
GVERLIPVGDNTVVGIS [PRE4]	2.96 ± 0.089	2.91 ± 0.081	2.69 ± 0.086	2.84 ± 0.064
GVEYRLRLRISRKRNEE [RPL31A]	1.5 ± 0.12	1.26 ± 0.12	1.18 ± 0.22	–
GVILMFAAILVLLVLPF [COB]	2.69 ± 0.062	1.34 ± 0.05	1.14 ± 0.046	1.25 ± 0.065
GVRSNHLRSNILKDLIY [SMC1]	2.47 ± 0.28	2.35 ± 0.16	2.82 ± 0.13	–
GVSISVSFNSKQNEQLH [SMC3]	1.87 ± 0.064	2.01 ± 0.065	2.35 ± 0.11	2.7 ± 0.13
GVSRQIAASAFLSLLNL [REC8]	1.5 ± 0.047	1.31 ± 0.045	1.23 ± 0.038	1.17 ± 0.14
GWDSLASRNVWSFYNGN [SNU114]	2.99 ± 0.12	3.12 ± 0.077	3.22 ± 0.066	3.48 ± 0.05
GWWGHMGGPKQKGITSY [QCR8]	3.16 ± 0.072	2.13 ± 0.08	1.67 ± 0.075	1.41 ± 0.14
GYDKKKNKPELYQIDYL [PRE1]	3.04 ± 0.086	2.91 ± 0.098	3.08 ± 0.09	3.02 ± 0.066
GYKSTVKSLRQGKSKLI [RPL30]	1.31 ± 0.08	1.35 ± 0.059	1.48 ± 0.061	1.4 ± 0.2
GYVIKVFNNGIVVLVPK [DIS3]	2.59 ± 0.092	2.38 ± 0.079	2.82 ± 0.067	2.39 ± 0.077

Sequence	protein stability index (doa10∆)	protein stability index (pdr5∆)	protein stability index (ubr1∆)	protein stability index (san1∆)
HASENISLSFSRPASYG [SIR4]	2.53 ± 0.064	2.53 ± 0.044	3.19 ± 0.045	2.74 ± 0.049
HAYNITFNNQDKGLLPY [RPO31]	2.64 ± 0.09	3.09 ± 0.2	2.91 ± 0.057	1.76 ± 0.098
HDIAYSKDGLPNKVKTE [RRP6]	2.74 ± 0.14	2.51 ± 0.23	3.2 ± 0.29	2.85 ± 0.18
HDTLNNEIANSIIQSKQ [BRR2]	2.76 ± 0.051	2.95 ± 0.064	2.88 ± 0.052	2.88 ± 0.058
HECRLRDMTYSAPIYVD [RET1]	2.04 ± 0.087	1.67 ± 0.099	1.91 ± 0.061	2.01 ± 0.21
HENYIQDDDFPLDDAGT [MCD1]	2.95 ± 0.054	2.98 ± 0.051	3 ± 0.046	2.99 ± 0.041
HEVQYQESSSTLSTHST [SIN4]	2.68 ± 0.037	2.78 ± 0.036	2.83 ± 0.032	2.87 ± 0.041
HFAWLPTHIWNAKRSHM [POP1]	1.99 ± 0.033	1.67 ± 0.035	1.5 ± 0.026	1.45 ± 0.059
HFFQIDGFNKTFHDELN [YML103C/NUP188]	1.67 ± 0.07	2.04 ± 0.12	2.85 ± 0.091	2.67 ± 0.14
HFLQFSELAGDEELEAE [PRP8]	3.33 ± 0.15	3.11 ± 0.27	–	–
HFRAPSRILYKAIRGMV [RPL16B]	2.19 ± 0.096	2.67 ± 0.059	2.21 ± 0.062	2.14 ± 0.1
HGKASRQQYYSGVQVGG [SNF6]	2.43 ± 0.061	2.8 ± 0.063	2.21 ± 0.05	2.61 ± 0.052
HGVSFKKRAPRAVKEIK [RPL31A]	–	2.73 ± 0.14	3.2 ± 0.11	2.97 ± 0.17
HHWLLDKLSGCYAPRPS [RPS4A]	2.21 ± 0.063	1.94 ± 0.062	1.42 ± 0.045	1.89 ± 0.083
HHYNPKTKKLNLSAFKI [BRR2]	2.21 ± 0.062	2.4 ± 0.05	2.4 ± 0.042	2.4 ± 0.055
HIHDLEKFSPKSFISKL [SRP54]	1.81 ± 0.044	2.12 ± 0.042	2.36 ± 0.028	2.14 ± 0.064
HIHKHVKDEAFDDLLKP [RET1]	3.12 ± 0.11	3.4 ± 0.12	3.11 ± 0.15	3.25 ± 0.073
HIKEASEEVDDLSMVPK [SNF2]	3.27 ± 0.11	3.24 ± 0.25	3.6 ± 0.16	3.13 ± 0.1
HIPICVTFSFFNPQDTE [RRP45]	1.56 ± 0.048	1.61 ± 0.06	1.58 ± 0.046	1.28 ± 0.1
HIQGFPTLGERLDNLQD [DSN1]	3.34 ± 0.11	3.39 ± 0.11	3.05 ± 0.073	3.16 ± 0.046
HKKIKVAQPDSLRETNT [SIR2]	3.33 ± 0.13	3.25 ± 0.11	3.2 ± 0.053	2.6 ± 0.092
HKQIHTTIFVKSTTPYV [POP7]	2.15 ± 0.045	2.31 ± 0.05	1.82 ± 0.03	2.15 ± 0.062
HKTFLVANVKDLETLTM [RPL32]	–	3.39 ± 0.26	2.83 ± 0.17	3.22 ± 0.09
HKVTQKKDIKIGTNDLF [SIR4]	2.63 ± 0.12	2.61 ± 0.11	2.27 ± 0.13	2.7 ± 0.072
HLAICLDIINPGSVEEV [YDL116W/NUP84]	2.66 ± 0.098	2.77 ± 0.089	3.45 ± 0.088	2.46 ± 0.13
HLAVVCVDDNSKISFID [SSN2]	–	2.84 ± 0.17	3.67 ± 0.16	–
HLDSFNYFVDTDLKKII [RET1]	2.69 ± 0.094	2.85 ± 0.08	2.64 ± 0.038	2.67 ± 0.1
